± gives the uncertainty stated by the source.
Experiment: protein stability index of a GFP-peptide fusion (yeast GPS) (PSI 1-4); higher = more stable; sorted into four equal gates, so the index is relative within each strain
Method in brief: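 For each peptide, the protein stability index sums the read frequency in every gate after multiplying it by the gate number. Read frequencies came from plasmids that were PCR-amplified from each gate and Illumina-sequenced, with reads assigned to strains by barcodes. The gates were four equal bins of GFP/Cherry fluorescence ratio applied to mid-log yeast in leucine-free medium carrying a pooled library of tiled 17-residue yeast protein peptides fused downstream of GFP on a Cherry-expressing plasmid.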

Row | Sequence | protein stability index (doa10∆) | protein stability index (pdr5∆) | protein stability index (san1∆) | protein stability index (ubr1∆)
1 | YRPLTPSSEVYSPIEKE [RRP6] | 2.74 ± 0.071 | 3.03 ± 0.064 | 2.69 ± 0.073 | 2.91 ± 0.066
2 | IYISNLVRSIIAFDDLI [RPN8] | 1.42 ± 0.066 | 1.36 ± 0.11 | 1.17 ± 0.23 | 1.27 ± 0.27
3 | DEESLVKYMPEQKITEI [RPO21] | 3.23 ± 0.12 | 2.94 ± 0.098 | 2.99 ± 0.1 | 3.12 ± 0.056
4 | KRKLDIGKDTFVTRKSR [PRP8] | 2.93 ± 0.079 | 3.05 ± 0.057 | 2.91 ± 0.068 | 3.24 ± 0.043
5 | EINSEMCHIVRKFHELN [GRR1] | 2.4 ± 0.057 | 2.81 ± 0.063 | 2.85 ± 0.064 | 2.44 ± 0.05
6 | AHLAEIQLNGGSISEKV [RPL3] |  |  |  | 2.86 ± 0.12
7 | SVLKDSDDKTRQLSPHT [PRE1] | 2.56 ± 0.088 | 2.72 ± 0.11 | 2.43 ± 0.099 | 2.52 ± 0.067
8 | LPYERHMISQEGIKETQ [SWI1] | 1.22 ± 0.066 | 1.23 ± 0.073 | 1.3 ± 0.14 | 1.27 ± 0.065
9 | GVTSLIKNLGLPSDRCS [RPP1] | 2.29 ± 0.068 | 2.26 ± 0.072 | 1.5 ± 0.12 | 1.69 ± 0.062
10 | VTKDLKLRREDEIIVYA [REC8] | 2.8 ± 0.069 | 2.73 ± 0.05 | 3.18 ± 0.056 | 2.96 ± 0.044
11 | ANRSRFNNEAPPQTRKF [SMB1] | 3.05 ± 0.083 | 3.03 ± 0.049 | 2.87 ± 0.069 | 3.26 ± 0.047
12 | AVTEREVLVTPGLEFLD [MCD1] | 2.85 ± 0.14 | 3.15 ± 0.15 | 2.75 ± 0.089 | 2.94 ± 0.13
13 | RNEKIAVHVTVRGPKAE [RPL11A] | 2.54 ± 0.067 | 2.3 ± 0.061 | 1.93 ± 0.12 | 2.62 ± 0.053
14 | TSDNLLTITKAAGANVD [RPP1B] | 1.97 ± 0.066 | 2.13 ± 0.056 | 3.05 ± 0.08 | 2.26 ± 0.082
15 | GANTSAAQTLLQMDYKD [PRE9] | 3 ± 0.061 | 3.13 ± 0.058 | 3.09 ± 0.048 | 2.96 ± 0.051
16 | NDNNLKKLESQESLVKL [RPN5] | 3.01 ± 0.071 | 2.96 ± 0.064 | 2.76 ± 0.06 | 2.97 ± 0.071
17 | SLNLTDDVISNAGTNDN [MCD1] | 2.88 ± 0.047 | 2.97 ± 0.057 | 3.11 ± 0.036 | 2.96 ± 0.041
18 | QPTGLLKGLNGFPSAPQ [YMR153W/NUP53] | 3.39 ± 0.14 | 3.3 ± 0.12 | 3.25 ± 0.11 | 3.18 ± 0.1
19 | DNVNSTTGSIFEKDLMA [BRN1] | 2.98 ± 0.067 | 3.01 ± 0.068 | 3.07 ± 0.071 | 2.99 ± 0.041
20 | EEDISDLWNNFGNIMDN [RRP6] | 3.13 ± 0.078 | 2.98 ± 0.071 | 3.02 ± 0.052 | 3.02 ± 0.1
21 | LAANYLNIKPLLDAGCK [SKP1] | 1.83 ± 0.076 | 2.19 ± 0.081 | 1.57 ± 0.12 | 2.23 ± 0.09
22 | KGSRQCRVCSSHTGLIR [RPS29A] | 2.73 ± 0.06 | 2.93 ± 0.049 | 2.62 ± 0.055 | 2.9 ± 0.043
23 | NKIDQSLQYIERQQDEL [YJL041W/NSP1] | 3.18 ± 0.15 | 3.19 ± 0.12 | 3.25 ± 0.096 | 2.93 ± 0.061
24 | AEKSFKPPKNKYKVVRR [SEC65] | 2.58 ± 0.18 | 3 ± 0.17 | 3.21 ± 0.071 | 3.16 ± 0.13
25 | RESRIVSTEGNVPQTLA [RPL21A] | 2.13 ± 0.08 | 2.25 ± 0.082 | 2.94 ± 0.1 | 2.3 ± 0.095
26 | RLNKLNSNGIAMASLYL [SMD1] | 2.82 ± 0.075 | 2.95 ± 0.063 | 2.78 ± 0.065 | 2.67 ± 0.069

Row | Sequence | protein stability index (doa10∆) | protein stability index (pdr5∆) | protein stability index (san1∆) | protein stability index (ubr1∆)
27 | PKNSSSPVQIAFNRFMA [SSN8] | 1.51 ± 0.053 | 1.74 ± 0.05 | 1.52 ± 0.1 | 1.57 ± 0.054
28 | AQFAGRASIEYYVGQVM [DIS3] | 3.46 ± 0.28 | 2.84 ± 0.2 | 2.64 ± 0.17 | 
29 | VVERHLEDGDVVLFNRQ [RPO31] | 3.41 ± 0.079 | 3.32 ± 0.077 | 3.57 ± 0.069 | 3.38 ± 0.083
30 | VDDLRPEFAGYSKAAEP [ASC1] | 3.18 ± 0.23 |  |  | 3.67 ± 0.16
31 | VHTIIAGLDEDGKGAVY [PRE7] | 3.63 ± 0.16 | 3.41 ± 0.099 | 3.35 ± 0.093 | 3.32 ± 0.093
32 | DTYRTLMEEIESLKKEL [YIL149C/MLP2] | 3.16 ± 0.1 | 3.36 ± 0.092 | 3.4 ± 0.07 | 3.35 ± 0.068
33 | PNHNSPVVINLDAKNKV [RPO31] | 2.92 ± 0.16 | 3.08 ± 0.19 |  | 3.03 ± 0.24
34 | GVHDGEVEPALLLLQDY [RPN1] | 3.13 ± 0.2 | 3.46 ± 0.17 |  | 2.44 ± 0.24
35 | ITGEDEVLCSRIIEKSV [RRP45] | 2 ± 0.051 | 2.45 ± 0.054 | 2.1 ± 0.098 | 1.89 ± 0.059
36 | KKSKKKWSKKSMKDRAQ [RPS25A] | 3.46 ± 0.069 | 3.37 ± 0.1 | 3.36 ± 0.087 | 3.6 ± 0.051
37 | FANYKLLLKKIIKDYVL [SRB4] | 2.41 ± 0.069 | 2.24 ± 0.068 | 1.97 ± 0.09 | 1.86 ± 0.035
38 | YVDFVPMYKELWINYIK [POP4] | 2.33 ± 0.065 | 2.42 ± 0.056 | 2.62 ± 0.068 | 2.7 ± 0.047
39 | KFKHIDDKYGRKFALEK [SRP72] | 2.59 ± 0.061 | 2.81 ± 0.069 | 3.17 ± 0.054 | 3 ± 0.052
40 | VKDKQSKVSDDSESESG [RPN8] | 1.97 ± 0.11 | 2.78 ± 0.13 |  | 2.9 ± 0.13
41 | QLVLRGLLSQAIGCIER [YJR042W/NUP85] | 1.98 ± 0.11 | 2.15 ± 0.073 | 1.71 ± 0.099 | 2.3 ± 0.076
42 | NNNDNNNSNTVASSTNF [SWI1] | 2.92 ± 0.032 | 3.089 ± 0.03 | 2.94 ± 0.031 | 3.021 ± 0.028
43 | KWDNQSASRAKNMPVIY [RGR1] | 2.86 ± 0.13 | 2.41 ± 0.12 |  | 3.39 ± 0.16
44 | EEQRSDTKNSKSESPSE [ISW2] |  | 3.21 ± 0.23 |  | 
45 | FVKFLSKKGSLENNIRE [RPL10] | 3.32 ± 0.18 | 3.32 ± 0.16 | 3.11 ± 0.076 | 3.3 ± 0.057
46 | IVKASNWRLVEVGRVVL [RPL14A] | 2.8 ± 0.1 | 1.43 ± 0.13 |  | 1.69 ± 0.089
47 | DQKPIEHIKEGSEIAIS [SWI3] | 2.93 ± 0.058 | 3.21 ± 0.069 | 2.87 ± 0.064 | 2.92 ± 0.04
48 | QELELPGEFVTAIAHSI [SNF5] | 2.36 ± 0.049 | 2.37 ± 0.038 | 2.38 ± 0.038 | 2.4 ± 0.043
49 | VEDTLHVNKRKRVSGTS [YOR098C/NUP1] | 1.42 ± 0.078 | 1.92 ± 0.13 | 1.73 ± 0.15 | 1.52 ± 0.077
50 | VEILFEAGASAELDDCR [RPO21] | 2.94 ± 0.14 | 3.44 ± 0.15 | 2.93 ± 0.074 | 3.49 ± 0.16
51 | VTSKVRNAEFKVSKNST [YMR153W/NUP53] | 3.08 ± 0.15 | 3.49 ± 0.19 | 2.98 ± 0.11 | 3.28 ± 0.29

Source: the supplement of paper PMC9732359
